B1: Sb#50 (VHH)
VHH: QVQLVESGGGSVQAGGSLRLSCAASGYIDKIVYLGWFRQAPGKEREGVAALYTLSGHTYYADSVKGRFTVSLDNAKNTVYLQMNSLKPEDTALYYCAAATEGHAHALYRLHYYWGQGTQVTVS
B2: Sb#51 (VHH)
VHH: QVQLVESGGGLVQAGGSLRLSCAASGFPVYQGEMHWYRQAPGKEREWVAAIRSTGVQTWYADSVKGRFTISRDNAKNTVYLQMNSLKPEDTAVYYCRVWVGTHYFGQGTQVTVS
B3: Sb#52 (VHH)
VHH: QVQLVESGGGSVQAGGSLRLSCAASGNIQRIYYLGWFRQAPGKEREGVAALMTYTGHTYYADSVKGRFTVSLDNAKNTVYLQMNSLKPEDTALYYCAAAYVGAENPLPYSMYGYWGQGTQVTVS
B4: Sb#53 (VHH)
VHH: QVQLVESGGGSVQAGGSLRLSCAASGQISHIKYLGWFRQAPGKEREGVAALITRWGQTYYADSVKGRFTVSLDNAKNTVYLQMNSLKPEDTALYYCAAADYGASDPLWFIHYLYWGQGTQVTVS
B5: Sb#55 (VHH)
VHH: QVQLVESGGGSVQAGGSLRLSCAASGKIWTIKYLGWFRQAPGKEREGVAALMTRWGYTYYADSVKGRFTVSLDNAKNTVYLQMNSLKPEDTALYYCAAANYGSNFPLAEEDYWYWGQGTQVTVS
B6: Sb#56 (VHH)
VHH: QVQLVESGGGSVQAGGSLRLSCAASGNISQIHYLGWFRQAPGKEREGVAALNTDYGYTYYADSVKGRFTVSLDNAKNTVYLQMNSLKPEDTALYYCAAAYYFGDDIPLWWEAYSYWGQGTQVTVS
B7: Sb#58 (VHH)
VHH: QVQLVESGGGSVQAGGSLRLSCAASGNISTIEYLGWFRQAPGKEREGVAALYTWHGQTYYADSVKGRFTVSLDNAKNTVYLQMNSLKPEDTALYYCAAARWGRHMPLSATEYSYWGQGTQVTVS
B8: Sb#59 (VHH)
VHH: QVQLVESGGGSVQAGGSLRLSCAASGNIESIYYLGWFRQAPGKEREGVAALWTGDGETYYADSVKGRFTVSLDNAKNTVYLQMNSLKPEDTALYYCAAAAWGNSAPLTTYRYYYWGQGTQVTVS
B9: Sb#62 (VHH)
VHH: QVQLVESGGGSVQAGGSLRLSCAASGTIADIKYLGWFRQAPGKEREGVAALMTRWGSTYYADSVKGRFTVSLDNAKNTVYLQMNSLKPEDTALYYCAAANYGANYPLYSQQYSYWGQGTQVTVS
B10: Sb#63 (VHH)
VHH: QVQLVESGGGSVQAGGSLRLSCAASGSISSIKYLGWFRQAPGKEREGVAALMTRWGMTYYADSVKGRFTVSLDNAKNTVYLQMNSLKPEDTALYYCAAANYGANEPLQYTHYNYWGQGTQVTVS
B11: Sb#64 (VHH)
VHH: QVQLVESGGGSVQAGGSLRLSCAASGEIESIFYLGWFRQAPGKEREGVAALYTYVGQTYYADSVKGRFTVSLDNAKNTVYLQMNSLKPEDTALYYCAAASYGAAHPLSIMRYYYWGQGTQVTVS
B12: Sb#65 (VHH)
VHH: QVQLVESGGGSVQAGGSLRLSCAASGTIAHIKYLGWFRQAPGKEREGVAALMTKWGQTYYADSVKGRFTVSLDNAKNTVYLQMNSLKPEDTALYYCAAASYGANFPLKASDYSYWGQGTQVTVS
B13: Sb#66 (VHH)
VHH: QVQLVESGGGSVQAGGSLRLSCAASGSIQAITYLGWFRQAPGKEREGVAALVTWNGQTYYADSVKGRFTVSLDNAKNTVYLQMNSLKPEDTALYYCAAADWGYDWPLWDEWYWYWGQGTQVTVS
B14: Sb#67 (VHH)
VHH: QVQLVESGGGSVQAGGSLRLSCAASGSISSITYLGWFRQAPGKEREGVAALVTYSGNTYYADSVKGRFTVSLDNAKNTVYLQMNSLKPEDTALYYCAAATWGHSWPLYNDEYWYWGQGSQVTVS
B15: Sb#69 (VHH)
VHH: QVQLVESGGGSVQAGGSLRLSCAASGSISSITYLGWFRQAPGKEREGVAALNTFNGTTYYADSVKGRFTVSLDNAKNTVYLQMNSLKPEDTALYYCAAATWGYSWPLIAEYNWYWGQGTQVTVS
B16: Sb#71 (VHH)
VHH: QVQLVESGGGSVQAGGSLRLSCAASGSISSITYLGWFRQAPGKEREGVAALKTQAGFTYYADSVKGRFTVSLDNAKNTVYLQMNSLKPEDTALYYCAAANWGYSWPLYEADDWYWGQGTQVTVS

Each binder was assayed against SARS-CoV-2 RBD construct consisting of residues Pro330-Gly526 fused to Venus YFP (RBD-vYFP) (SARS-CoV-2, UniProt P0DTC2).

Does B1 bind?
Result: binds

Does B2 bind?
Result: binds

Does B3 bind?
Result: binds

Does B4 bind?
Result: binds

Does B5 bind?
Result: binds

Does B6 bind?
Result: binds

Does B7 bind?
Result: binds

Does B8 bind?
Result: binds

Does B9 bind?
Result: binds

Does B10 bind?
Result: binds

Does B11 bind?
Result: binds

Does B12 bind?
Result: binds

Does B13 bind?
Result: binds

Does B14 bind?
Result: binds

Does B15 bind?
Result: binds

Does B16 bind?
Result: binds
